Source: patent US20180215833A1 (published 2018)

Target: T1, HGF (UniProt P14210 32-728, limits assumed)
T1 construct: also called hepatocyte growth factor
Test: SPR, HGF on CM-5 chip, 10 µg/ml c-Met chimera injected
Method: Surface Plasmon Resonance (SPR) was also used to investigate the binding of the mAbs to the different llama-human c-Met chimeras. 3000 RU of 36C4, 48A2 and HGF were coupled on a CM-5 chip in 10 mM NaAc (pH4.5). 60 μl of a 10 μg/ml solution of the different c-Met chimeras was run over the chip at a flow rate of 30 μl/min and the association for 2 min was evaluated. The chip was regenerated with 20 mM NaOH and 1 M NaCl.

T1 sequence (P14210 32-728 limits assumed): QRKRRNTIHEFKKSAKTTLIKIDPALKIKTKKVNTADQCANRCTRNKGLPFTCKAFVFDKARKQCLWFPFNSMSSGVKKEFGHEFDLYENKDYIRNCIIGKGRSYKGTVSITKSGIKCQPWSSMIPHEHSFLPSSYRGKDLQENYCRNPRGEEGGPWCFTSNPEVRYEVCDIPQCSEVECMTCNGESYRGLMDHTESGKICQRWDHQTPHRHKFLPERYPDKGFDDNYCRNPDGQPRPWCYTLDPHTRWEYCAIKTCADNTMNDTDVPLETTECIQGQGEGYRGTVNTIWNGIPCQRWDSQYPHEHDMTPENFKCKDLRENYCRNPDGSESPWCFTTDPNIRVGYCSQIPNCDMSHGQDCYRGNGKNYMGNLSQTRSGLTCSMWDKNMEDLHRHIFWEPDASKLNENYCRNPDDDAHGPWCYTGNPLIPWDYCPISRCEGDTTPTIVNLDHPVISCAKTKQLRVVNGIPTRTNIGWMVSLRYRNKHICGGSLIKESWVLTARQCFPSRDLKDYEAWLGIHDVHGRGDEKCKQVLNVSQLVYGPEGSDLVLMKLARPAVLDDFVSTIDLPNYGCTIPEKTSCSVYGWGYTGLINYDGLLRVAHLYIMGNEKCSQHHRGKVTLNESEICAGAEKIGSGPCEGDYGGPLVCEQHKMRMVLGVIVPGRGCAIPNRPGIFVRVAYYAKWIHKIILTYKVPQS

binding result: binds
B1: LS1 (aa1-98) (receptor)
chain: ECKEALVKSRMNVNMQYQLPNFTAETRIQNVVLHKHHIYLGAVNYIYVLNDKDLQKVAEYKTGPVLEHPHCFPCEDCSHKANLSDGVWKDNINMALLVDTYYDDQLISCGSVNRGTCQRHVFPHNHTADIQSEVHCIFSPQIEEPSQCPDCVVSALGAKVLSSVKDRFINFFVGNTINSSYFPDHPLHSISVRRLKETKDGFMFLTDQSYIDVLPEFRDSYPIKYVHAFESNNFIYFLTVQRETLDAQTFHTRIIRFCSINSGLHSYMEMPLECILTEKRKKRSTKKEVFNILQAAYVSKPGAQLARQIGASLNDDILFGVFAQSKPDSAEPMDRSAMCAFPIKYVNDFFNKIVNKNNVRCLQHFYGPNHEHCFNRTLLRNSSGCEARRDEYRTEFTTALQRVDLFMGQFSEVLLTSISTFIKGDLTIANLGTSEGRFMQVVVSRSGPSTPHVNFLLDSHPVSPEVIVEHTLNQNGYTLVITGKKITKIPLNGLGCRHFQSCSQCLSAPPFVQCGWCHDKCVRSEECLSGTWTQQICLPAIYKVFPNSAPLEGGTRLTICGWDFGFRRNNKFDLKKTRVLLGNESCTLTLSESTMNTLKCTVGPAMNKHFNMSIIISNGHGTTQYSTFSYVDPVITSISPKYGPMAGGTLLTLTGNYLNSGNSRHISIGGKTCTLKSVSNSILECYTPAQTISTEFAVKLKIDLANRETSIFSYREDPIVYEIHPTKSFISGGSTITGVGKNLNSVSVPRMVINVHEAGRNFTVACQHRSNSEIICCTTPSLQQLNLQLPLKTKAFFMLDGILSKYFDLIYVHNPVFKPFEKPVMISMGNENVLEIKGNDIDPEAVKGEVLKVGNKSCENIHLHSEAVLCTVPNDLLKLNSELNIEWKQAISSTVLGKVIVQPDQNFT
notes: Ranges count on mature human c-Met
